± gives the uncertainty stated by the source.

The chains are these.
B1: Pituitary-specific positive transcription factor 1, residues 130 to 198; numbered along this chain, P28069 (parent)
chain: RELEKFANEFKVRRIKLGYTQTNVGEALAAVHGSEFSQTTICRFENLQLSFKNACKLKAILSKWLEEAE

Variants of B1 are the subject of the series. Kind of series: abundance fitness (aPCA) (normalised: wild type 0, dead -1); higher = more abundant; growth selection in yeast, the domain comes from the species named. The note with it: Homo sapiens.
RELEKFANEFKVRRMKLGYTQTNVGEALAAVHGSEFSQTTICRFENLQLSFKNACKLKAILSKWLEEAE [I15M]: the abundance fitness stood at 0.014 ± 0.058. For RELEKFANEFKVRRRKLGYTQTNVGEALAAVHGSEFSQTTICRFENLQLSFKNACKLKAILSKWLEEAE [I15R] the value was -0.083 ± 0.055. For the variant RELEKFANEFKVRRDKLGYTQTNVGEALAAVHGSEFSQTTICRFENLQLSFKNACKLKAILSKWLEEAE [I15D], the abundance fitness is -0.89 ± 0.26. For RELEKFANEFKVRRGKLGYTQTNVGEALAAVHGSEFSQTTICRFENLQLSFKNACKLKAILSKWLEEAE [I15G] the value was -0.404 ± 0.087; for RELEKFANEFKVRREKLGYTQTNVGEALAAVHGSEFSQTTICRFENLQLSFKNACKLKAILSKWLEEAE [I15E], -0.014 ± 0.11. For RELEKFANEFKVRRLKLGYTQTNVGEALAAVHGSEFSQTTICRFENLQLSFKNACKLKAILSKWLEEAE [I15L] the value was -0.196 ± 0.045; for RELEKFANEFKVRRCKLGYTQTNVGEALAAVHGSEFSQTTICRFENLQLSFKNACKLKAILSKWLEEAE [I15C], -0.327 ± 0.094; for RELEKFANEFKVRRYKLGYTQTNVGEALAAVHGSEFSQTTICRFENLQLSFKNACKLKAILSKWLEEAE [I15Y], -0.761 ± 0.16. RELEKFANEFKVRRPKLGYTQTNVGEALAAVHGSEFSQTTICRFENLQLSFKNACKLKAILSKWLEEAE [I15P]: the abundance fitness is -1.03 ± 0.21. For RELEKFANEFKVRRHKLGYTQTNVGEALAAVHGSEFSQTTICRFENLQLSFKNACKLKAILSKWLEEAE [I15H] the value was -0.393 ± 0.093; for RELEKFANEFKVRRTKLGYTQTNVGEALAAVHGSEFSQTTICRFENLQLSFKNACKLKAILSKWLEEAE [I15T], -0.13 ± 0.073.

For RELEKFANEFKVRRNKLGYTQTNVGEALAAVHGSEFSQTTICRFENLQLSFKNACKLKAILSKWLEEAE [I15N], the abundance fitness is -0.546 ± 0.31. For RELEKFANEFKVRRVKLGYTQTNVGEALAAVHGSEFSQTTICRFENLQLSFKNACKLKAILSKWLEEAE [I15V] the value was -0.219 ± 0.077. For RELEKFANEFKVRRSKLGYTQTNVGEALAAVHGSEFSQTTICRFENLQLSFKNACKLKAILSKWLEEAE [I15S] the value was -0.272 ± 0.055.

Consider RELEKFANEFKVRRAKLGYTQTNVGEALAAVHGSEFSQTTICRFENLQLSFKNACKLKAILSKWLEEAE [I15A], for which the abundance fitness is -0.173 ± 0.085. For RELEKFANEFKVRRKKLGYTQTNVGEALAAVHGSEFSQTTICRFENLQLSFKNACKLKAILSKWLEEAE [I15K] the value was -0.054 ± 0.073; for RELEKFANEFKVRRQKLGYTQTNVGEALAAVHGSEFSQTTICRFENLQLSFKNACKLKAILSKWLEEAE [I15Q], 0.042 ± 0.063. For RELEKFANEFKVRRIKTGYTQTNVGEALAAVHGSEFSQTTICRFENLQLSFKNACKLKAILSKWLEEAE [L17T] the value was -0.941 ± 0.25; for RELEKFANEFKVRRIKMGYTQTNVGEALAAVHGSEFSQTTICRFENLQLSFKNACKLKAILSKWLEEAE [L17M], -0.453 ± 0.096; for RELEKFANEFKVRRIKNGYTQTNVGEALAAVHGSEFSQTTICRFENLQLSFKNACKLKAILSKWLEEAE [L17N], -0.729 ± 0.23. For the variant RELEKFANEFKVRRIKIGYTQTNVGEALAAVHGSEFSQTTICRFENLQLSFKNACKLKAILSKWLEEAE [L17I], the abundance fitness is -0.709 ± 0.5. For RELEKFANEFKVRRIKKGYTQTNVGEALAAVHGSEFSQTTICRFENLQLSFKNACKLKAILSKWLEEAE [L17K] the value was -0.804 ± 0.26; for RELEKFANEFKVRRIKWGYTQTNVGEALAAVHGSEFSQTTICRFENLQLSFKNACKLKAILSKWLEEAE [L17W], -0.638 ± 0.11; for RELEKFANEFKVRRIKSGYTQTNVGEALAAVHGSEFSQTTICRFENLQLSFKNACKLKAILSKWLEEAE [L17S], -0.738 ± 0.091.

In the case of RELEKFANEFKVRRIKVGYTQTNVGEALAAVHGSEFSQTTICRFENLQLSFKNACKLKAILSKWLEEAE [L17V], the abundance fitness is -0.785 ± 0.12. Take RELEKFANEFKVRRIKRGYTQTNVGEALAAVHGSEFSQTTICRFENLQLSFKNACKLKAILSKWLEEAE [L17R]: the abundance fitness was -0.803 ± 0.11. For RELEKFANEFKVRRIKYGYTQTNVGEALAAVHGSEFSQTTICRFENLQLSFKNACKLKAILSKWLEEAE [L17Y], the abundance fitness was -0.858 ± 0.47. For RELEKFANEFKVRRIKQGYTQTNVGEALAAVHGSEFSQTTICRFENLQLSFKNACKLKAILSKWLEEAE [L17Q] the value was -0.821 ± 0.26; for RELEKFANEFKVRRIKCGYTQTNVGEALAAVHGSEFSQTTICRFENLQLSFKNACKLKAILSKWLEEAE [L17C], -0.613 ± 0.11; for RELEKFANEFKVRRIKHGYTQTNVGEALAAVHGSEFSQTTICRFENLQLSFKNACKLKAILSKWLEEAE [L17H], -0.497 ± 0.29. RELEKFANEFKVRRIKFGYTQTNVGEALAAVHGSEFSQTTICRFENLQLSFKNACKLKAILSKWLEEAE [L17F]: the abundance fitness was -0.588 ± 0.094. With RELEKFANEFKVRRIKAGYTQTNVGEALAAVHGSEFSQTTICRFENLQLSFKNACKLKAILSKWLEEAE [L17A], the abundance fitness is -0.401 ± 0.091.

As to RELEKFANEFKVRRIKGGYTQTNVGEALAAVHGSEFSQTTICRFENLQLSFKNACKLKAILSKWLEEAE [L17G], the abundance fitness was -0.889 ± 0.16. With RELEKFANEFKVRRIKLCYTQTNVGEALAAVHGSEFSQTTICRFENLQLSFKNACKLKAILSKWLEEAE [G18C], the abundance fitness was -0.688 ± 0.23.

Consider RELEKFANEFKVRRIKLNYTQTNVGEALAAVHGSEFSQTTICRFENLQLSFKNACKLKAILSKWLEEAE [G18N], for which the abundance fitness was -0.969 ± 0.37. For RELEKFANEFKVRRIKLSYTQTNVGEALAAVHGSEFSQTTICRFENLQLSFKNACKLKAILSKWLEEAE [G18S] the value was -0.838 ± 0.16; for RELEKFANEFKVRRIKLFYTQTNVGEALAAVHGSEFSQTTICRFENLQLSFKNACKLKAILSKWLEEAE [G18F], -0.681 ± 0.21. For RELEKFANEFKVRRIKLPYTQTNVGEALAAVHGSEFSQTTICRFENLQLSFKNACKLKAILSKWLEEAE [G18P] the value was -0.608 ± 0.28; for RELEKFANEFKVRRIKLIYTQTNVGEALAAVHGSEFSQTTICRFENLQLSFKNACKLKAILSKWLEEAE [G18I], -0.665 ± 0.27.

The values above are taken from the Human Domainome abundance scans (Beltran et al. 2025).
